From US12534748B2, “Engineered beta-subunit of tryptophan synthase for production of non-canonical amino acids” (California Institute of Technology, priority 2015, dated 2026)
Residue numbers refer to the chain shown, from its start. Names and notes keep the numbering of the source.

T1: PfTrpA (Pyrococcus furiosus, UniProt Q8U094)
T1 construct: made in house; host or cells: E. coli BL21 E. cloni EXPRESS
T1 sequence (Q8U094 whole entry, looked up): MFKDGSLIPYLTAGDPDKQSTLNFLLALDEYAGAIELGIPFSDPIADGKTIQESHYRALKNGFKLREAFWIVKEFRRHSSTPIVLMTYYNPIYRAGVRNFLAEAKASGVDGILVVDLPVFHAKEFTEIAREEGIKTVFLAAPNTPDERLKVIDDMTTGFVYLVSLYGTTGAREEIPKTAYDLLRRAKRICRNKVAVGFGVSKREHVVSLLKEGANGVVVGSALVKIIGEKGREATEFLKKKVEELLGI

T2: PfTrpA (Pyrococcus furiosus, UniProt Q8U094)
T2 construct: made in house; host or cells: E. coli BL21 E. cloni EXPRESS
T2 sequence (Q8U094 1-248): T1 sequence (Q8U094 whole entry, looked up)
T2 sequence (Q8U093 1-388 partner): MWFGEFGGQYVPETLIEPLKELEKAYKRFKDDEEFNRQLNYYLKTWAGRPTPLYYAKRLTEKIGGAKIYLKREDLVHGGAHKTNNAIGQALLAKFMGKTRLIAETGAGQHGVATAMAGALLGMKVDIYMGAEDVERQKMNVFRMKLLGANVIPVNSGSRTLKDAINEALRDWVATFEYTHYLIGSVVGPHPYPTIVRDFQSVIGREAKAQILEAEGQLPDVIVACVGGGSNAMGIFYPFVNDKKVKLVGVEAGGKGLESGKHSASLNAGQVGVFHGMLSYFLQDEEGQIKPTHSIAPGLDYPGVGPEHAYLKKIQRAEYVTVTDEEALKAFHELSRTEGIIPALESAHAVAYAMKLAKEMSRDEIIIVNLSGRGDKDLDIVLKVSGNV

B1: PfTrpB^0B2: PfTrpB with mutations P12L, E17G, I68V, F274S, T292S, T321A (protein)
chain: MWFGEFGGQYVLETLIGPLKELEKAYKRFKDDEEFNRQLNYYLKTWAGRPTPLYYAKRLTEKIGGAKVYLKREDLVHGGAHKTNNAIGQALLAKFMGKTRLIAETGAGQHGVATAMAGALLGMKVDIYMGAEDVERQKMNVFRMKLLGANVIPVNSGSRTLKDAINEALRDWVATFEYTHYLIGSVVGPHPYPTIVRDFQSVIGREAKAQILEAEGQLPDVIVACVGGGSNAMGIFYPFVNDKKVKLVGVEAGGKGLESGKHSASLNAGQVGVSHGMLSYFLQDEEGQIKPSHSIAPGLDYPGVGPEHAYLKKIQRAEYVAVTDEEALKAFHELSRTEGIIPALESAHAVAYAMKLAKEMSRDEIIIVNLSGRGDKDLDIVLKVSGNVLEHHHHHH
modifications: left off: small tags and cut ends
notes: PfTrpB with mutations P12L, E17G, I68V, F274S, T292S, T321A
B2: PfTrpB^2G9: PfTrpB with mutation T292S (protein)
chain: B1 chain with L12P, G17E, V68I, S274F, A321T
modifications: left off: small tags and cut ends
notes: PfTrpB with mutation T292S
B3: PfTrpB: wild-type β-subunit of tryptophan synthase from Pyrococcus furiosus, SEQ ID NO:2 (protein, listed as Pyrococcus furiosus)
chain: B1 chain with L12P, G17E, V68I, S274F, S292T, A321T
B4: PfTrpB^4D11: PfTrpB with mutations E17G, I68V, F274S, T292S, T321A (protein)
chain: B1 chain with L12P
modifications: left off: small tags and cut ends
notes: PfTrpB with mutations E17G, I68V, F274S, T292S, T321A
B5: TmTrpB^WT: wild-type TrpB from Thermotoga maritima, SEQ ID NO:6 (protein, listed as Thermotoga maritima)
chain: MKGYFGPYGGQYVPEILMPALEELEAAYEEIMKDESFWKEFNDLLRDYAGRPTPLYFARRLSEKYGARIYLKREDLLHTGAHKINNAIGQVLLAKKMGKTRIIAETGAGQHGVATATAAALFGMECVIYMGEEDTIRQKPNVERMKLLGAKVVPVKSGSRTLKDAINEALRDWITNLQTTYYVIGSVVGPHPYPIIVRNFQKVIGEETKKQILEKEGRLPDYIVACVGGGSNAAGIFYPFIDSGVKLIGVEAGGEGLETGKHAASLLKGKIGYLHGSKTFVLQDDWGQVQVTHSVSAGLDYSGVGPEHAYWRETGKVLYDAVTDEEALDAFIELSRLEGIIPALESSHALAYLKKINIKGKVVVVNLSGRGDKDLESVLNHPYVRERIRLEHHHHHH

Experiments:
[1] = molecular target: T1, PfTrpA; type: biochemical; settings: percent of its own activity
[2] = system: PfTrpA; type: biochemical, Pyrococcus furiosus
[3] = Thermostability T50 (temperature of half-maximal activity after incubation for 1 h); type: physicochemical; settings: for T50: temperature of half-maximal activity after incubation for 1 h
[4] = Total turnovers of β-MeTrp formation from L-threonine and indole; type: biochemical; settings: for Turnovers: 1 μM purified enzyme, 20 mM each L-threonine and indole, 24 h at 75° C.; for turnovers (TTN) of β-MeTrp production: purified enzyme, 24 hours
Description: Total Turnover Number (TTN) determination. Measurements were made using HPLC and LC-MS instruments. The amount of Trp formed was measured at 280 nm using a standard curve with trichlorobenzene as internal standard. […] This same technique was used to determine the TTN of the PfTrpB^2B9 reaction with different nucleophiles. […] […] Before addition of enzyme, all reagents were transferred into a Coy anaerobic chamber with <1 ppm O2 to rapidly exchange the atmosphere in the headspace of the vials to 95/5% N2/H2, which limits competing non-catalytic oxidation of indoles. Enzyme was added in the anaerobic environment with varied catalyst loading to ensure a robust product signal in subsequent analysis. Reaction vessels were capped before being removed from the anaerobic chamber and incubated in a 75° C. water bath for 24 hours. Reactions were quenched the next day by addition of 1 volume (150 μL) of 100% ACN, mixing, and allowing to rest at room temperature for 10 min. Quenched solutions were then diluted 5-fold with 40% ACN in water and analyzed via LC-MS.
To identify the best parent enzyme for optimization, we first measured production of β-MeTrp using purified enzymes from each generation in the evolution if PfTrpB^0B2.

[5] = Substrate selectivity: relative rate of NCAA production with L-serine and indole analogs (UHPLC-MS); type: biochemical
Description: engineered TrpB enzymes. (A) Indole analogs that have been reported to react with StTrpS were tested for reactivity with the PfTrpB, PfTrpS, and PfTrpB^0B2 enzymes. The nucleophilic atom is indicated with a gray circle. (B) Relative activities of enzyme complex PfTrpS (black) and PfTrpB^0B2 (gray) compared with PfTrpB. Reactions performed in duplicate with 20 mM of each substrate and varying enzyme concentrations to ensure incomplete conversion after 1 h. Products were later confirmed in scaled-up reactions using PfTrpB^0B2.
Substrate Selectivity. The relative rate of NCAA production was measured using 20 mM L-serine and 20 mM indole analog (FIG. 4A) in 200 mM potassium phosphate (pH 8.0) with 5% (vol/vol) DMSO. Reactions were incubated at 75° C. for 1 h, quenched, and the relative rate of production formation was measured by comparing the ratio of the product peaks measured via ultra HPLC-MS (UHPLC-MS) Agilent 1290 with 6140 MS detector at 280 nm and then normalizing for the enzyme concentration.

[6] = Kinetics of tryptophan formation monitored at 290 nm (continuous assay for Trp production); type: biochemical
Description: Kinetics and UV-Vis Spectroscopy. Data were collected between 550 and 250 nm on a UV1800 Shimadzu spectrophotometer (Shimadzu) using 0.25-20 μM of enzyme in 200 mM potassium phosphate (pH 8.0) in a quartz cuvette. Samples were incubated at 75° C. for >3 min to ensure a stable temperature was reached. PfTrpB activity (kcat) was measured by monitoring tryptophan formation at 290 nm using Δe290=1.89 mM^−1·cm^−1.
Purified protein concentrations were determined via the Bradford assay (Bio-Rad). The concentration of PfTrpB^2B9 in heat treated lysates was determined by specific activity. Tryptophan formation was monitored at 75° C. over 1 min at 290 nm using Δε290=1.89 mM^−1 cm^−1·^2 The assay buffer contained 200 mM potassium phosphate pH 8, and 5 μM PLP. Using purified PfTrpB^2B9, we recorded an activity of 0.9 s^−1 with 400 μM Ind and 20 mM Ser. Using this parameter, 375 mg L^−1 of PfTrpB^2B9 active catalyst were prepared as a heat-treated lysate.

[7] = molecular target: T2, PfTrpA; type: biochemical; settings: Table 1, values for PfTrpB reported here
[8] = Rescreen of library hits for β-MeTrp formation (heat-treated lysate, HPLC); type: biochemical; settings: random mutagenesis library, parent PfTrpB^4D11, 60 min reaction at 75° C.
Description: High-throughput screening. For high-throughput expression, BL21 E. cloni Express cells carrying PfTrpB^4D11 and variant plasmids were grown in 96-well deep well plates in 300 μL TBamp at 37° C. and 80% humidity with shaking at 250 rpm overnight. TBamp expression cultures (630 μL) were inoculated with 20 μL of the overnight cultures and continued to grow at 37° C. and 80% humidity with shaking at 250 rpm for 3 h. Expression was induced with the addition of ITPG to a final concentration of 1 mM to pre-chilled (20 min on ice-water bath) cultures. The expression continued for another 20 h at 20° C. with shaking at 250 rpm. Cells were then centrifuged at 4000 g for 10 min and frozen at −20° C. over night. […] The reactions were then arrested by incubation in an ice-water bath, and the amount of β-MeTrp formed was recorded at 290 nm with a plate reader (Tecan Infinite M200).
Cultures of each hit containing missense mutations were grown in triplicate on 5 mL scale and expression and lysis proceeded in the same manner as described in the Cloning, Expression and Purification section above. Reactions using 10 μM protein as heat-treated lysate (determined by Bradford assay) and 20 mM each substrate were run for 1 h at 75° C. and quenched by dilution to 50% ACN.

[9] = Table 1, published values; cited from earlier work

| Molecule | kcat change with TrpA [2] | T50 [3] | Turnovers [4] | turnovers (TTN) of β-MeTrp production [4] | also measured |
| --- | --- | --- | --- | --- | --- |
| B1 | 0.04 | 87 °C | 180 |  | activity when PfTrpA was added [1]: 4%; activity relative to PfTrpB on the substrate panel ([5]; all nucleophiles tested): substantial increase in activity; rate relative to PfTrpS ([5]; indazole (5)): three; rate relative to PfTrpS ([5]; indoline (6)): approximately six; kcat higher than PfTrpS [6]: threefold |
| B2 | 0.34 | 95 °C | 420 |  | enhancement of β-MeTrp activity relative to wild-type PfTrpB [4]: approximately 6 fold |
| B3 | 3.2 | 95 °C | 66 | 66 | kcat change with TrpA [7]: 3.2; Thermal stability indicators: T50 ([3]; Table 1): 94.7 ± 1.2 |
| B4 | 0.3 | 84 °C | 660 | ~420 | Fold Improvement (increase in β-MeTrp formation relative to parent) [8]: 1.0 (parent) |
| B5 |  |  |  |  | kcat change with TrpA [9]: 2.4 |
